Reference: patent US20260062488A1 (AbbVie / Abbott, published 2026)

How the values were obtained:
[1] = target: T1, human α4β7 integrin (human, UniProt P13612 34-1032; P26010 20-798); assay: FACS titration on BaF3-hα4β7
T1 construct: also called hα4β7; a4b7

[2] = target: T1, human α4β7 integrin; assay: FACS, primary human CD4+ memory T cells
[3] = target: T1, human α4β7 integrin; assay: blockade of HuT78 cell adhesion to MAdCAM-1
[4] = target: T1, human α4β7 integrin; assay: blockade of HuT78 cell adhesion to MAdCAM-1; remark: listed apart in the source
[5] = target: T2, cynomolgus α4β7 integrin (cynomolgus monkey); assay: blockade of CHOK1-cα4β7 cell adhesion to MAdCAM-1
T2 construct: whole, on cells; On CHOK1-cα4β7 cells or cynomolgus blood lymphocytes; also called cα4β7; cyno α4β7

[6] = target: T2, cynomolgus α4β7 integrin; assay: blockade of CHOK1-cα4β7 cell adhesion to MAdCAM-1; remark: listed apart in the source
[7] = target: T1, human α4β7 integrin; assay: FACS binding, human CD4+CD45RO+ T cells, summary table
[8] = target: T1, human α4β7 integrin; assay: MadCAM-1/HuT78 potency (adhesion blockade), summary table
[9] = target: T2, cynomolgus α4β7 integrin; assay: MadCAM-1/cα4β7 potency (adhesion blockade), summary table
[10] = target: T1, human α4β7 integrin; assay: inhibition of MAdCAM-1 binding to human CD4+CD45RO+ T cells
[11] = target: T2, cynomolgus α4β7 integrin; assay: ratio of cyno to human adhesion-blockade potency, summary table
[12] = target: T1, human α4β7 integrin; assay: row IC50 (pM) HuT78 of the binning table (assay not explained, presumably adhesion to MAdCAM-1)
[13] = target: T1, human α4β7 integrin; assay: blockade of HuT78 cell adhesion to plate-bound MAdCAM-1, representative experiment; the two IC50 lines under the plot bear no name: the lower one is given to Ab-m1, whose curve lies left of Ab-Vedo's (midpoint near log -2.1 ug/ml)
[14] = target: T2, cynomolgus α4β7 integrin; assay: blockade of CHOK1-cα4β7 cell adhesion to MAdCAM-1, representative experiment; the two IC50 lines under the plot bear no name: the lower one is given to Ab-m1, whose curve lies clearly left of Ab-Vedo's (midpoint near log -1.6 ug/ml)
[15] = target: T1, human α4β7 integrin; assay: FACS, primary human CD4+ memory T cells (CD4+CD45RO+), one whole blood
[16] = target: T1, human α4β7 integrin; assay: blockade of MAdCAM-1 mediated HuT78 cell adhesion
[17] = target: T2, cynomolgus α4β7 integrin; assay: blockade of CHOK1/cα4β7 adhesion to MAdCAM-1
[18] = target: T1, human α4β7 integrin; assay: FACS on α4β7-expressing HuT78 cells

B1: Ab-m1 (antibody, V domains shown)
VH: EVQLQQSVAELVRPGASVKLSCTTSGFNIKNTYMHWVKQRPKQGLEWIGRIDPANGHTEYAPKFQGKATITADTSSNTAYLHLSSLTSDDTAIYYCYYVDSWGQGTTLTVSS
VL: DILMTQSPSSMSVSLGDTVSITCHASQGISDNIGWLQQRPGKSFKGLIYHGTNLEDGVPSRFSGSGSGADYSLTISSLESEDFADYYCVQYAQFPWTFGGGTTLEIK
notes: Hybridoma antibody, mouse IgG1/kappa; also called murine antibody Ab-m1; Mouse anti-human α4β7 [mu IgG1/k
In the case of B1, the EC50 [1] is reported as 0.474 nM, the EC50 [2] is reported as 0.0098 nM and the IC50 [3] is reported as 0.0555 nM. It also gave an IC50 [4] of 0.0228 nM, an IC50 [5] of 0.201 nM and an IC50 [6] of 0.0658 nM. The EC50 [7] was 0.0098 nM, the IC50 [8] was 0.0555 nM and the IC50 [9] was 0.201 nM. The IC50 [10] was 0.0637 nM, the Cyno x-reactivity [11] was 4 fold and the IC50 [12] was 0.0447 nM. For the same binder, the IC50 [13] was 0.0511 nM and the IC50 [14] was 0.165 nM.

B2: Ab-c1 (antibody, human IgG1, V domains shown)
VH: EVQLQQSVAELVRPGASVKLSCTTSGFNIKNTYMHWVKQRPKQGLEWIGRIDPANGHTEYAPKFQGKATITADTSSNTAYLHLSSLTSDDTAIYYCYYVDSWGQGTTLTVSS
VL: DILMTQSPSSMSVSLGDTVSITCHASQGISDNIGWLQQRPGKSFKGLIYHGTNLEDGVPSRFSGSGSGADYSLTISSLESEDFADYYCVQYAQFPWTFGGGTTLEIK
notes: Ab-m1's variable regions with human IgG1/k constant regions; also called murine-human chimera Ab-c1; Chimeric anti-human α4β7 [hu IgG1/k
With B2 the IC50 [4] was 0.0137 nM, the IC50 [6] was 0.0864 nM and the EC50 [15] was 0.0039 nM.

B3: Ab-h1.5 (antibody, human IgG1, V domains shown)
VH: EVQLVQSGAEVKKPGSSVKVSCTTSGFNIKNTYMHWVKQRPGQGLEWIGRIDPANGHTEYAPKFQGKATITADESTNTAYLELSSLRSEDTAVYYCYYVDSWGQGTTVTVSS
VL: DIQMTQSPSSLSASVGDRVTITCHASQGISDNIGWLQQKPGKSFKGLIYHGTNLEDGVPSRFSGSGSGADYTLTISSLQPEDFATYYCVQYAQFPWTFGGGTKVEIKR
For B3, the IC50 [16] was 0.0091 nM.

B4: Ab-h1.9 (antibody, human IgG1, V domains shown)
VH: EVQLVQSGAEVKKPGSSVKVSCKASGFNIKNTYMHWVRQAPGQGLEWIGRIDPANGHTEYAPKFQGRVTITADESTNTAYMELSSLRSEDTAVYYCYYVDSWGQGTTVTVSS
VL: DIQMTQSPSSLSASVGDRVTITCHASQGISDNIGWLQQKPGKSFKLLIYHGTNLEDGVPSRFSGSGSGTDYTLTISSLQPEDFATYYCVQYAQFPWTFGGGTKVEIK
notes: Humanized, human IgG1 and kappa constant regions; also called Ab-H1.9 (parental)
Work on B4 yielded an IC50 [17] of 0.0365 nM and an IC50 [16] of 0.0114 nM.

B5: Ab-h1.8 (antibody, human IgG1, V domains shown)
VH: EVQLVQSGAEVKKPGSSVKVSCKASGFNIKNTYMHWVRQAPGQGLEWIGRIDPANGHTEYAPKFQGRVTITADESTNTAYMELSSLRSEDTAVYYCYYVDSWGQGTTVTVSS
VL: DIQMTQSPSSLSASVGDRVTITCHASQGISDNIGWLQQKPGKSFKGLIYHGTNLEDGVPSRFSGSGSGADYTLTISSLQPEDFATYYCVQYAQFPWTFGGGTKVEIKR
B5 showed an IC50 [16] of 0.0138 nM.

B6: Ab-h1.6 (antibody, human IgG1, V domains shown)
VH: EVQLVQSGAEVKKPGSSVKVSCTTSGFNIKNTYMHWVKQRPGQGLEWIGRIDPANGHTEYAPKFQGKATITADESTNTAYLELSSLRSEDTAVYYCYYVDSWGQGTTVTVSS
VL: DIQMTQSPSSLSASVGDRVTITCHASQGISDNIGWLQQKPGKSFKLLIYHGTNLEDGVPSRFSGSGSGTDYTLTISSLQPEDFATYYCVQYAQFPWTFGGGTKVEIK
B6 gave an IC50 [16] of 0.0081 nM.

B7: Ab-h1.9b (antibody, V domains shown)
VH: EVQLVQSGAEVKKPGSSVKVSCKASGFNIKNTYMHWVRQAPGQGLEWIGRIDPARGHTEYAPKFSGRVTITADESTNTAYMELSSLRSEDTAVYYCYYVDQWGQGTTVTVSS
VL: DIQMTQSPSSLSASVGDRVTITCHASQDISDNIGWLQQKPGKSFKLLIYHGTNLEDGVPSRFSGSGSGTDYTLTISSLQPEDFATYYCVQYAQFPWTFGGGTKVEIK
notes: Liability-engineered clone converted to IgG format [hu IgG1/k]; constant regions of the tested mAb not specified
B7: binds [18].

B8: Ab-h1.9e (antibody, V domains shown)
VH: EVQLVQSGAEVKKPGSSVKVSCKASGFNIKNTYMHWVRQAPGQGLEWIGRIDPAGGHTEYAPKFIGRVTITADESTNTAYMELSSLRSEDTAVYYCYYVASWGQGTTVTVSS
VL: DIQMTQSPSSLSASVGDRVTITCHASQEISDNIGWLQQKPGKSFKLLIYHGTNLEDGVPSRFSGSGSGTDYTLTISSLQPEDFATYYCVQYAQFPWTFGGGTKVEIK
notes: as for B7
B8: binds [18].

B9: Ab-h1.9a (antibody, V domains shown)
VH: EVQLVQSGAEVKKPGSSVKVSCKASGFNIKNTYMHWVRQAPGQGLEWIGRIDPANKHTEYAPKFLGRVTITADESTNTAYMELSSLRSEDTAVYYCYYVASWGQGTTVTVSS
VL: DIQMTQSPSSLSASVGDRVTITCHASQEISDNIGWLQQKPGKSFKLLIYHGTNLEDGVPSRFSGSGSGTDYTLTISSLQPEDFATYYCVQYAQFPWTFGGGTKVEIK
notes: as for B7
B9: binds [18].
